Consider four molecules from patent US20230094162A1 (MacroGenics, published 2023).

In experiment [1] the target is T1, CD137 expressed on the cell surface (CHO/CD137 cells) (UniProt Q07011 24-255, limits assumed).
T1 construct: whole, on cells; also called cell surface CD137; Jurkat-NF-κB-Luc reporter cells overexpressing CD137
Nature of the experiment: flow cytometry (FACS) on CHO cells expressing CD137, MFI.

In experiment [2] the target is T2, PD-L1 expressed on the cell surface (CHO/PD-L1 cells) (UniProt Q9NZQ7 19-290).
T2 construct: whole, on cells; also called PD-L1 on JIMT-1 cells
Nature of the experiment: flow cytometry (FACS) on CHO cells expressing PD-L1, MFI. How it is done: (§1) FACS analysis to evaluate the test articles for binding to cell surface PD-L1 was performed essentially as follows: 100 μL of CHO cells expressing PD-L1 (CHO/PD-L1) (1.0×10⁵ to 1.0×10⁶ cells/well) and 100 μL of serially diluted test article was added to each well of microtiter assay plate(s), mixed and incubated at RT for about 30 min. The cells were washed with FACS Buffer and secondary antibody (goat anti-human-FITC, PE, or APC) was then added to each well, after which, the components were mixed and the wells were incubated at RT for about 30 min. Cells were washed and resuspended in 250 μL FACS Buffer and analyzed by flow cytometry (BD LSR Fortessa or FACSCanto II) for cell events collection. Data analysis were performed via FloJo v10.

Experiment [3] concerns the target T2, PD-L1 expressed on the cell surface …. Described as above. How it is done: as §1
Test articles were used at 10 μg/mL and five-fold serial dilutions for the FACS analysis and at 50 μg/mL and five-fold serial dilutions for the PD-L1 reporter assay.
This is another data set of the same source.

For experiment [4] the target is unchanged. Nature of the experiment: cell-based or functional assay.
Experiment [5] has the same target. Kind of experiment: cell-based or functional assay. This is another data set of the same source.
Experiment [6] deals with T1, CD137 expressed on the cell surface …. Kind of experiment: flow cytometry on CHO/CD137 cells (Surface Binding). How it is done:
FACS analysis to evaluate the test articles for binding to cell surface CD137 was performed essentially as follows: 100 μL of CHO cells expressing CD137 (CHO/CD137) (1.0×10⁵ to 1×10⁶ cells/well) and 100 μL of serially diluted test article or control was added to each well of microtiter assay plate(s), mixed and incubated at RT for about 30 min. The cells were washed with FACS Buffer and secondary antibody (goat anti-human-APC, PE, or FITC) was then added to each well (1:1000), after which, the components were mixed and the wells were incubated at RT for about 30 min. Cells were washed and resuspended in 250 μL FACS Buffer and analyzed by flow cytometry (BD LSR Fortessa or FACSCanto II) for cell events collection. Data analysis were performed via FloJo v10.

Experiment [7] deals with T3, His-tagged soluble human CD137 fusion protein (huCD137) (human, UniProt Q07011 24-186).
T3 construct: extracellular domain; The ELISA method allows a His or a human Fc fusion; also called shCD137 His; huCD137-His; not shown: His tag
Nature of the experiment: BIACORE SPR, antibody captured on anti-human Fc, soluble CD137 His as analyte, 1:1 model. The text has this:
The binding kinetics of the anti-CD137 antibodies (having human Fc regions) were investigated using BIACORE™ SPR analysis. The anti-CD137 antibodies were captured on a Fab′2 goat-anti-human Fc surface.

The target in experiment [8] is T3, His-tagged soluble human CD137 fusion …. Nature of the experiment: ELISA, plate-coated soluble human CD137.
The target in experiment [9] is T4, soluble cynomolgus monkey CD137 (cyCD137) (cynomolgus monkey, UniProt A9YYE7 24-186).
T4 construct: extracellular domain; also called scyCD137 His; scyCD137 hFc; not shown: His tag or human Fc Region
Kind of experiment: ELISA, plate-coated soluble cynomolgus CD137.

Experiment [10] concerns the target T2, PD-L1 expressed on the cell surface …. Kind of experiment: cell-based or functional assay. The source holds these as a separate data set.
For experiment [11] the target is unchanged. Kind of experiment: cell-based or functional assay. The source holds these as a separate data set.
Experiment [12] deals with T1, CD137 expressed on the cell surface …. Nature of the experiment: flow cytometry (FACS) on CHO cells expressing CD137, MFI. This is another data set of the same source.
For experiment [13], the target named is T4, soluble cynomolgus monkey CD137 …. Nature of the experiment: ELISA, plate-coated soluble cynomolgus CD137, hybridoma supernatant. How it is done: (§2) ELISA assays to evaluate the test articles for CD137 binding were performed essentially as follows: flat bottom maxisorb 96-well plates were coated with soluble human or cynomolgus monkey CD137 (the extracellular domain of human or cynomolgus monkey CD137 fused to a His tag (shCD137 His or scyCD137 His) or to a human Fc Region (shCD137 hFc or scyCD137 hFc)), each at 0.5 or 1 μg/mL. The plates were washed, blocked with PBS buffer containing 0.5% bovine serum albumin and 0.1% Tween20, and incubated with a test article (e.g., cell supernatants or purified mAb). For the hybridoma supernatants anti-CD137 antibody was utilized at 1.0 μg/mL and six three-fold serial dilutions. The amount of test article binding to the immobilized CD137 (human or cynomolgus monkey) was assessed using a goat anti-mouse IgG-HRP secondary antibody. All samples were analyzed on a plate reader (Victor 2 Wallac, Perkin Elmer) and EC50 values were calculated from dose-response curves by nonlinear regression analysis.

Experiment [14] addresses T3, His-tagged soluble human CD137 fusion …. Nature of the experiment: ELISA, plate-coated soluble human CD137, hybridoma supernatant. How it is done: as §2

Where two headings read alike, the source gives them in different places.

T1 sequence (Q07011 24-255 limits assumed): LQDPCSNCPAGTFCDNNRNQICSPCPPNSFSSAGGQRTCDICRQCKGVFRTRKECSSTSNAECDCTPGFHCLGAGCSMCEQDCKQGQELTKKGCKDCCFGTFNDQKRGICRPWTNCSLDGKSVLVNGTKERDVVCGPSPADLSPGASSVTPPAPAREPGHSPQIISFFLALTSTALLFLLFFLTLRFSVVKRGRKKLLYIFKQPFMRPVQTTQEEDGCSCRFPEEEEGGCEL
T3 sequence (Q07011 24-186): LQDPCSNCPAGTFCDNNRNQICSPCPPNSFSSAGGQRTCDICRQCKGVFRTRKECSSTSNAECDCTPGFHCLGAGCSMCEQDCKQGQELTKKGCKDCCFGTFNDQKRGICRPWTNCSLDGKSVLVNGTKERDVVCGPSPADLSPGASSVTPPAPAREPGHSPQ
T2 sequence (Q9NZQ7 19-290): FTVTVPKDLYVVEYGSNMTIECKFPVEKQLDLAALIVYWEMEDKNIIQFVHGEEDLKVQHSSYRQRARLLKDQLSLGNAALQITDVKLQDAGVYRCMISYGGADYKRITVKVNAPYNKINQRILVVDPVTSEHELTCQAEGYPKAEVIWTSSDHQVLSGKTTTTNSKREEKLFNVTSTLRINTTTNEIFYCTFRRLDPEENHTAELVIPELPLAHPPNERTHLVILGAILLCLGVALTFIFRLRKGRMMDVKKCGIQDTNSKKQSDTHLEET
T4 sequence (A9YYE7 entry or part of it): as the sequence (Q07011 24-186) above, with P4L, N19S, R50K, T66I, P67S, F69Y, G75E, V149A counted along it

B1: DART-A (bispecific antibody, IgG1)
chain 1: DIQMTQSPSSLSASVGDRVTITCKASQDVNTAVAWYQQKPGKAPKLLIYWASTRHTGVPSRFSGSGSGTDFTLTISSLQPEDFATYYCQQHYNTPLTFGQGTKVEIKGGGSGGGGQVQLQESGPGLVKPSETLSLTCTVSGGSISSYYWSWIRQPPGKGLEWIGRIYTSGSTNYNPSLKSRVTMSVDTSKNQFSLKLSSVTAADTAVYYCARDGWYDEDYNYYGMDVWGQGTTVTVSSGGCGGGEVAACEKEVAALEKEVAALEKEVAALEKLEPKSADKTHTCPPCPAPEAAGGPSVFLFPPKPKDTLYITREPEVTCVVVDVSHEDPEVKFNWYVDGVEVHNAKTKPREEQYNSTYRVVSVLTVLHQDWLNGKEYKCKVSNKALPAPIEKTISKAKGQPREPQVYTLPPSREEMTKNQVSLTCLVKGFYPSDIAVEWESNGQPENNYKTTPPVLDSDGSFFLYSKLTVDKSRWQQGNVFSCSVMHEALHNHYTQKSLSLSPG
chain 2: EIVMTQSPATLSLTPGERATLSCRASQSVSSNYLSWFQQIPGQAPRLLIYGASTRATGIPARFSGSGSGTDFTLTISSLQPEDFAVYYCQQDYDLPWTFGQGTKVEIKGGGSGGGGEVQLVESGGGLVQPGGSLRLSCAASGFTFSSYTMSWVRQAPGKGLEWVAYISIGGGTTYYPDTVKGRFTISRDNAKNTLYLQMNSLKTEDTAVYYCARQGLPYYFDYWGQGTLVTVSSGGCGGGKVAACKEKVAALKEKVAALKEKVAALKE
notes: Tetravalent CD137 x PD-L1 Fc diabody; CD137 MAB-6(1.1) and hPD-L1 MAB-2(1.1); IgG1 (AA/YTE)
On to B1, for which the “EC50 (read off the curve)” value was approximately 0.06 µg/mL in experiment [1]; approximately 0.02 µg/mL in experiment [2]; approximately 0.04 µg/mL in [3]; approximately 0.2 µg/mL in experiment [4]; approximately 0.08 µg/mL in [5].

B2: chCD137 MAB-3 (antibody, V domains shown)
VH: QVQLQQPGAELVRPGASVKLSCKASGYTFTSYWINWVKQRPGQGLEWIGNIYPSDSYTNYNQKFKDKATLTVDKSSSTAYMQLSSPTSEDSAVYYCTRDYGSSYSFDYWGQGTTLTVSS
VL: DIQMTQTTSSLSASLGDRVTISCRPSQDISNYLNWYQQKPDGTVKLLIYYTSRLRSGVPSRFSGSGSGTDYSLTISNLEQEDIATYFCQQGDTLPYTFGGGTKLEIK
Molecule B2 gave an EC50 in experiment [6] of 0.01 µg/mL. In experiment [7], this molecule gave a dissociation constant (Kd) of 38 nM, a koff of 0.025 s⁻¹ and a kon of 660000 M⁻¹ s⁻¹. In addition, the midpoint of the response in experiment [8], the EC50, lay at 0.034 µg/mL. In experiment [9], this molecule registered an EC50 of 0.044 µg/mL.

B3: TRIDENT-A4 (bispecific antibody, human IgG1, kappa, L234A L235A)
chain 1: EIVMTQSPATLSLTPGERATLSCRASQSVSSNYLSWFQQIPGQAPRLLIYGASTRATGIPARFSGSGSGTDFTLTISSLQPEDFAVYYCQQDYDLPWTFGQGTKVEIKGGGSGGGGQVQLQESGPGLVKPSETLSLTCTVSGGSISSYYWSWIRQPPGKGLEWIGRIYTSGSTNYNPSLKSRVTMSVDTSKNQFSLKLSSVTAADTAVYYCARDGWYDEDYNYYGMDVWGQGTTVTVSSGGCGGGEVAALEKEVAALEKEVAALEKEVAALEKGGGDKTHTCPPCPAPEAAGGPSVFLFPPKPKDTLYITREPEVTCVVVDVSHEDPEVKFNWYVDGVEVHNAKTKPREEQYNSTYRVVSVLTVLHQDWLNGKEYKCKVSNKALPAPIEKTISKAKGQPREPQVYTLPPSREEMTKNQVSLWCLVKGFYPSDIAVEWESNGQPENNYKTTPPVLDSDGSFFLYSKLTVDKSRWQQGNVFSCSVMHEALHNHYTQKSLSLSPGK
chain 2: EIVMTQSPATLSLTPGERATLSCRASQSVSSNYLSWFQQIPGQAPRLLIYGASTRATGIPARFSGSGSGTDFTLTISSLQPEDFAVYYCQQDYDLPWTFGQGTKVEIKGGGSGGGGQVQLQESGPGLVKPSETLSLTCTVSGGSISSYYWSWIRQPPGKGLEWIGRIYTSGSTNYNPSLKSRVTMSVDTSKNQFSLKLSSVTAADTAVYYCARDGWYDEDYNYYGMDVWGQGTTVTVSSGGCGGGKVAALKEKVAALKEKVAALKEKVAALKE
heavy: EVQLVESGGGLVQPGGSLRLSCAASGFTFSSYTMSWVRQAPGKGLEWVAYISIKGGTTYYPDTVKGRFTISRDNAKNSLYLQMNSLRAEDTAVYYCARQGLPYYGDYWGQGTLVTVSSASTKGPSVFPLAPSSKSTSGGTAALGCLVKDYFPEPVTVSWNSGALTSGVHTFPAVLQSSGLYSLSSVVTVPSSSLGTQTYICNVNHKPSNTKVDKRVEPKSCDKTHTCPPCPAPEAAGGPSVFLFPPKPKDTLYITREPEVTCVVVDVSHEDPEVKFNWYVDGVEVHNAKTKPREEQYNSTYRVVSVLTVLHQDWLNGKEYKCKVSNKALPAPIEKTISKAKGQPREPQVYTLPPSREEMTKNQVSLSCAVKGFYPSDIAVEWESNGQPENNYKTTPPVLDSDGSFFLVSKLTVDKSRWQQGNVFSCSVMHEALHNRYTQKSLSLSPGK
light: DIQMTQSPSSLSASVGDRVTITCKASQDVNEAVAWYQQKPGKAPKLLIYWASTRHTGVPSRFSGSGSGTDFTLTISSLQPEDFATYYCQQHYNTPLTFGQGTKVEIKRTVAAPSVFIFPPSDEQLKSGTASVVCLLNNFYPREAKVQWKVDNALQSGNSQESVTEQDSKDSTYSLSSTLTLSKADYEKHKVYACEVTHQGLSSPVTKSFNRGEC
notes: Trivalent; two CD137 MAB-6(1.1) sites, one hPD-L1 MAB-2(3.2) site
For the molecule B3, the figures for the “EC50 (read off the curve)” value in [10], in experiment [11] and in [12] were approximately 0.4 µg/mL, approximately 0.2 µg/mL and approximately 0.01 µg/mL, respectively.

B4: CD137 MAB-6 (1.1) (antibody, V domains shown)
VH: QVQLQESGPGLVKPSETLSLTCTVSGGSISSYYWSWIRQPPGKGLEWIGRIYTSGSTNYNPSLKSRVTMSVDTSKNQFSLKLSSVTAADTAVYYCARDGWYDEDYNYYGMDVWGQGTTVTVSS
VL: EIVMTQSPATLSLTPGERATLSCRASQSVSSNYLSWFQQIPGQAPRLLIYGASTRATGIPARFSGSGSGTDFTLTISSLQPEDFAVYYCQQDYDLPWTFGQGTKVEIK
notes: Fully human variable domains from a TRIANNI MOUSE hybridoma
B4 displayed an EC50 in experiment [6] of 0.021 µg/mL. For the same molecule, in experiment [7], the equilibrium dissociation constant (Kd) was determined as 16 nM, the off-rate (koff) amounted to 0.0067 s⁻¹ and the kon stood at 420000 M⁻¹ s⁻¹. In experiment [13], this molecule came in with an EC50 of 0.049 µg/mL. Further, in [14], the EC50 came to 0.038 µg/mL.
